Laboratory results published in IntAct's records for PubMed 29892012.

Biological target: ar6p1_human ARL6IP1 (UniProt Q15041)
Sequence (Q15041 whole entry): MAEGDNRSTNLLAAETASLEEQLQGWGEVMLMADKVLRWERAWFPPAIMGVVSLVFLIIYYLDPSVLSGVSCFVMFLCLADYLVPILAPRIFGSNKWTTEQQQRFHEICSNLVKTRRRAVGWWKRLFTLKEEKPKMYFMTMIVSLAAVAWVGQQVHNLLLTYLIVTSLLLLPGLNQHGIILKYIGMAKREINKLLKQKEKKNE

Substance: Golgi reassembly-stacking protein 2 (Homo sapiens) (from UniProt Q9H8Y8) L320R
- effect of a mutation on the interaction: with no effect
